Results reported in US7169567B1, “Screening assay utilizing the PTH receptor” (The General Hospital Corporation, priority 1998, dated 2007).
Where no end group is shown, it is not given here.

Experiments:
[1] = molecular target: T1, intact rat PTH-1 receptor (rWT-HA) (Rattus norvegicus, UniProt P25961); experiment: cAMP response in COS-7 cells transiently transfected with intact rat PTH-1 receptor (rWT-HA); type: cell-based; conditions: COS-7 cells expressing rWT-HA
T1 construct: expressed in transfected cells; host or cells: COS-7, transient (DEAE-dextran), pCDNA-1 based plasmid
T1 sequence (P25961 23-591 E93Y/N94P/K95Y/T99D/G100Y/S101A limits assumed): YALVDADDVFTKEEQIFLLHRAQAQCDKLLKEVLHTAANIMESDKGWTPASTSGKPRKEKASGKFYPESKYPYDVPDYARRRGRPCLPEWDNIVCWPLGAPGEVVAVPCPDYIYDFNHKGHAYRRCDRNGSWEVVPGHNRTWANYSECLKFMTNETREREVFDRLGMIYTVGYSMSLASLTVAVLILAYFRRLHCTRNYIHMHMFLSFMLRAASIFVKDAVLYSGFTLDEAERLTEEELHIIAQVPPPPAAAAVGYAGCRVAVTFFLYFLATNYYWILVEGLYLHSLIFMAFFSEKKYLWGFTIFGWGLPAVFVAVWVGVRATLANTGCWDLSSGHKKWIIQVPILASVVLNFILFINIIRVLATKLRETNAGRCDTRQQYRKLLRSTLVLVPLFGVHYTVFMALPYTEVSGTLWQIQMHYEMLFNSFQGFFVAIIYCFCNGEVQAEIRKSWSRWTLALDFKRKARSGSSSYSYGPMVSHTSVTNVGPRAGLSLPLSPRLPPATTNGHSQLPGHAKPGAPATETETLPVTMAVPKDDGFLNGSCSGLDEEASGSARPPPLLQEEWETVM
Excerpt: FIG. 4. PTH Responses of Intact and Truncated PTH-1 Receptors in COS-7 Cells. Shown at the top are schematics of the intact (A) and truncated (B) rat PTH-1 receptors used for transient transfection of COS-7 cells, and subsequent cAMP response assays. The conserved extracellular cysteine residues are depicted as open circles and numbered according to sequence position, and the nine amino acids of the epitope tag (HA) in rWT-HA are shaded. The tics at residue 26 and 181 indicate the endpoints of the deletion in rΔNt. Based on the predicted signal peptide cleavage site at Ala-22, residues 23–25 in rΔNt are joined to residue 182. The cAMP responses of COS-7 cells expressing the intact receptor (C) and rΔNt (D) to rPTH(1–34) (J) or rPTH(1–14) (C) are also shown. The graphs show combined data (mean±s.e.m.) from five separate experiments, each performed in duplicate.
FIG. 5. Alanine-scan of PTH(1–14) with Intact and Truncated PTH Receptors. COS-7 cells transiently transfected with rWT-HA (A) or rCE I-G (B) were treated with 100 mM of native rat PTH(1–14) or 100 mM of a rPTH(1–14) analog containing a single alanine substitution for 1 h at 21° C., and the resulting intracellular cAMP levels were measured by RIA. The amino acid substitutions are indicated on the axis labels. Peptides were tested in duplicate, and a single experiment representative of three others is shown. […]

[2] = test system: PTH-1 receptor (intact or truncated receptors used in this study); experiment: Competition and direct binding assays (radioiodinated rPTH(1–34) tracer or radiolabeled PTH(1–14) analog); conditions: unlabeled peptide; radioiodinated rPTH(1–34) as tracer ligand; data not shown
Excerpt: This reduced potency is not surprising, given that the PTH(1–14) peptide lacks important receptor-binding residues located in the PTH(15–34) region in the PTH(15–34) domain (Nussbaum, S. R., et al., J. Biol. Chem. 255:10183–10187 (1980); Gardella, T. J., et al., Endrocrinology 132(5):2024–2030 (1993); Caulfield, M. P., et al., Endocrinology 127:83–87 (1990); and Abou-Samra, A.-B., et al., Endocrinology 125:2215–2217 (1989)).

## PTH(1–14): Amino-terminal peptide fragment based on the rat PTH sequence, residues 1–14, C-terminally amidated (AVSEIQLMHNLGKH-NH2)
[1]
  potency relative to PTH(1–34) with rWT-HA: four to five orders of magnitude weaker
[2]
  binding in standard competition binding assays: bound too weakly to permit detection
